Legend:
Experiment in all cases: cryo-EM structure; polar flagellar motor-hook complex purified as a whole from V. alginolyticus KK148 ΔflgL; local refinements of the LPHT ring, hook, rod, export apparatus and MS ring; LPHT ring particles also obtained by disassembling the complex at reduced salt
[1] = target: FlgH (Vibrio alginolyticus (endogenous in strain KK148 ΔflgL))
[2] = target: FlgI (Vibrio alginolyticus (endogenous in strain KK148 ΔflgL))
[3] = target: FlgT (Vibrio alginolyticus (endogenous in strain KK148 ΔflgL))
[4] = target: the molecule itself

FlgH (natural protein)
stoichiometry N [1]: 26

FlgI (natural protein)
stoichiometry N [2]: 26

FlgT (natural protein)
stoichiometry N [3]: 26

B1: FliF (natural protein, UniProt Q75N27 1-580, looked up)
chain: MADKSTDLTVTEGGSDGALVASSDVDVESQNPDLEERSASKFDMAVGDLDLLRQVVLVLSISICVALIVMLFFWVKEPEMRPLGAYETEELIPVLDYLDQQKINYKLDGNTISVESSEYNSIKLGMVRSGVNQATEAGDDILLQDMGFGVSQRLEQERLKLSRERQLAQAIEEMKQVRKARVLLALPKHSVFVRHNQEASASVFLTLSTGTNLKQQEVDSIVDMVASAVPGMKTSRITVTDQHGRLLSSGSQDPASAARRKEQELERSQEQALREKIDSVLLPILGYGNYTAQVDIQMDFSAVEQTRKRFDPNTPATRSEYALEDYNNGNMVAGIPGALSNQPPADASIPQDVAQMKDGSVMGQGSVRKESTRNFELDTTISHERKQTGTVARQTVSVAIKDRRQVNPDTGEVTYTPMSESEINAIRQVLIGTVGFDQGRGDLLNVLSVKFAEPEAEQLEEPPIWEHPNFSDWVRWFASALVIIVVVLVLVRPAMKKLLNPTSDDEDEMYGPDGLPIGADGETSLIGSDIESSELFEFGSSIDLPNLHKDEDVLKAVRALVANEPELAAQVVKNWMNDNG
notes: FliF, MS ring subunit of the polar flagellar motor, Vibrio alginolyticus; domains RBM2, RBM3, β-collar; extended peptide loops LA, LB, LC; 34 subunits form the MS ring; 23 RBM2 domains seen in the RBM2 subring; also called MS ring protein; FliF peptide loops LA, LB, LC; source: endogenous, purified within the polar flagellar motor-hook complex from V. alginolyticus KK148 ΔflgL
stoichiometry N [4]: 34

From publication PMC13626733, “Molecular basis of high-torque transmission of the Vibrio polar flagellar motor” (Protein & Cell, 2026)
